Experimental data published in IntAct's records for PubMed 28683311.

Experiments:
tnr6a_human TNRC6A = tnr6a_human TNRC6A (UniProt Q8NDV7)
limd1_human LIMD1 [1] = target: limd1_human LIMD1 (UniProt Q9UGP4)
limd1_human LIMD1 [2] = target: limd1_human LIMD1 (UniProt Q9UGP4); remark: listed apart in the source
limd1_human LIMD1 [3] = target: limd1_human LIMD1 (UniProt Q9UGP4); remark: listed apart in the source

limd1_human LIMD1, sequence (Q9UGP4 whole entry): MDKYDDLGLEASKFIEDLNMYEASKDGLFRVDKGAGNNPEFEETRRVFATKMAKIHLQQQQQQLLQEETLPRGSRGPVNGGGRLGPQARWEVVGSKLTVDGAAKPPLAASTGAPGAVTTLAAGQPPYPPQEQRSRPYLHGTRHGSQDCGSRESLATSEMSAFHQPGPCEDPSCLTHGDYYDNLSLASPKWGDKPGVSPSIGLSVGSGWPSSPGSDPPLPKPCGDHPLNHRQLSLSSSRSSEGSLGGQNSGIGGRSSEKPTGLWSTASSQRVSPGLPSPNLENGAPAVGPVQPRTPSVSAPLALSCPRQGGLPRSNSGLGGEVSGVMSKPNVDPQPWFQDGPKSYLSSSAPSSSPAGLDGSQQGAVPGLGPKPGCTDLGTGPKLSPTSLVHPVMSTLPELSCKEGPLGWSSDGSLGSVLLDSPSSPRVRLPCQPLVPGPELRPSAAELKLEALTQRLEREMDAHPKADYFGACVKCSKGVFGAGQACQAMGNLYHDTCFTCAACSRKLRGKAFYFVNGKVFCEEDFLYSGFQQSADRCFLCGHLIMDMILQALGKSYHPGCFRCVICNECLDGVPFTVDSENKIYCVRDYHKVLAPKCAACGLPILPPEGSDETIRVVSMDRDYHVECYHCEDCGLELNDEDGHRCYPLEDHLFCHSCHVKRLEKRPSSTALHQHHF
tnr6a_human TNRC6A, sequence (Q8NDV7 whole entry): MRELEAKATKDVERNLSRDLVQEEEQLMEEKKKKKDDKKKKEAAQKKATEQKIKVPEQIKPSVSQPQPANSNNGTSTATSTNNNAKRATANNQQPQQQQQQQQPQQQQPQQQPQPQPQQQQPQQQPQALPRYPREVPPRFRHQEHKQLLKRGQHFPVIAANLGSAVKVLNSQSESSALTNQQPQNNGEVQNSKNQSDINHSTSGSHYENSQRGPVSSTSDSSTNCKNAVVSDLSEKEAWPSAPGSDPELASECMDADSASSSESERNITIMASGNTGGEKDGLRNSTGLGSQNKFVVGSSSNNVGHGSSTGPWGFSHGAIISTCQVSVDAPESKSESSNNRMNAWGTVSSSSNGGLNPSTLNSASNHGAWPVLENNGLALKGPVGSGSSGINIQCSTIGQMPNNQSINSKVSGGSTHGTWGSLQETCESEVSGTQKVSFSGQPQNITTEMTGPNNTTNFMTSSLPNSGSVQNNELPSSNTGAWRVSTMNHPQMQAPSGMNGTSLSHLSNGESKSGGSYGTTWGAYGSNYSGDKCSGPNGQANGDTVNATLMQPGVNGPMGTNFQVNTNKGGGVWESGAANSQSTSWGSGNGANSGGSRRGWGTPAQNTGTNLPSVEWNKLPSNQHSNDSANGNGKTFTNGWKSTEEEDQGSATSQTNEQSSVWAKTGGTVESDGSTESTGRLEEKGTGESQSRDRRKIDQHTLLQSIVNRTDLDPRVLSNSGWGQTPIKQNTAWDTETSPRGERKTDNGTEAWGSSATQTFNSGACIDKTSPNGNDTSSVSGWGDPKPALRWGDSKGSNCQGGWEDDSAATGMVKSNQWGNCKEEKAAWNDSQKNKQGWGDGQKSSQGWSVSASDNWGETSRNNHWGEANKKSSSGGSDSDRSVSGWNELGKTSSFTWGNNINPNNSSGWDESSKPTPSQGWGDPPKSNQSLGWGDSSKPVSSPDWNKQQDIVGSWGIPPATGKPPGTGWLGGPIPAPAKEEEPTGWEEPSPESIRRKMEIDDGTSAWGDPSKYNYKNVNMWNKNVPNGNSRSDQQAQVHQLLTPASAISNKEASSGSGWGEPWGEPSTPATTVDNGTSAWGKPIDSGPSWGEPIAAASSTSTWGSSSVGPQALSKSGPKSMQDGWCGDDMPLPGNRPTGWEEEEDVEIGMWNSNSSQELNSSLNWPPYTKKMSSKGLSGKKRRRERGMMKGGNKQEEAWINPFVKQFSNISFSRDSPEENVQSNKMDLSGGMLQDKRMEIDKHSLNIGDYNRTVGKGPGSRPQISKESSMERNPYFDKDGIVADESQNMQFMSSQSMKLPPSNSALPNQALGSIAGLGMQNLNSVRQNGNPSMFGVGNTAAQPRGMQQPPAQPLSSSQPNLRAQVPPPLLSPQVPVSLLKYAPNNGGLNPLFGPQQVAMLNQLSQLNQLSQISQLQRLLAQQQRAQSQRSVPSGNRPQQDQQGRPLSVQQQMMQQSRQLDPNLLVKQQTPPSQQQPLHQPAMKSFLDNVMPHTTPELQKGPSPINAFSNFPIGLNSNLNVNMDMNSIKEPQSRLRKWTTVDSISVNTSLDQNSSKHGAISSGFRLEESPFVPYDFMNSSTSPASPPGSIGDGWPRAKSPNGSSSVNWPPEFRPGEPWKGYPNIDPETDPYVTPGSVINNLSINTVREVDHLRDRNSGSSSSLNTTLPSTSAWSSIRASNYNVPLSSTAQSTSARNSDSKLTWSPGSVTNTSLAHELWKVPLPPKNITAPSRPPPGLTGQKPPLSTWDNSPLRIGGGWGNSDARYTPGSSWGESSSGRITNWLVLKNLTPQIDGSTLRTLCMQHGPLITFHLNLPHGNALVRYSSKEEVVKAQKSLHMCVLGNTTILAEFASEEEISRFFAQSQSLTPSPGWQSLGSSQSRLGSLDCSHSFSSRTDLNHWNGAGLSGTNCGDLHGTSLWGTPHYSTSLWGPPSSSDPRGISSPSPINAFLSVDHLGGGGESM

Row | Substance | effect of a mutation on the interaction (tnr6a_human TNRC6A) | effect of a mutation on the interaction (limd1_human LIMD1 [1]) | effect of a mutation on the interaction (limd1_human LIMD1 [2]) | effect of a mutation on the interaction (limd1_human LIMD1 [3])
1 | Protein argonaute-2 (Homo sapiens), Q9UKV8 S387A | with no effect | decreasing interaction strength |  | 
2 | Protein argonaute-2 (Homo sapiens), Q9UKV8 S387E |  | increasing interaction strength | with no effect | 
3 | Protein argonaute-4 (Homo sapiens) (from UniProt Q9HCK5) S377A |  |  |  | decreasing interaction strength
4 | Protein argonaute-4 (Homo sapiens) (from UniProt Q9HCK5) S377E |  |  |  | with no effect
